The results in this text go back to publication PMC5662698 (2017).

Usually Kd stands for the constant that tells how readily two partners part at equilibrium.

The target in one test is T1, DnaK-C15A/M404C/T437C (Escherichia coli (strain K12)).
T1 chain: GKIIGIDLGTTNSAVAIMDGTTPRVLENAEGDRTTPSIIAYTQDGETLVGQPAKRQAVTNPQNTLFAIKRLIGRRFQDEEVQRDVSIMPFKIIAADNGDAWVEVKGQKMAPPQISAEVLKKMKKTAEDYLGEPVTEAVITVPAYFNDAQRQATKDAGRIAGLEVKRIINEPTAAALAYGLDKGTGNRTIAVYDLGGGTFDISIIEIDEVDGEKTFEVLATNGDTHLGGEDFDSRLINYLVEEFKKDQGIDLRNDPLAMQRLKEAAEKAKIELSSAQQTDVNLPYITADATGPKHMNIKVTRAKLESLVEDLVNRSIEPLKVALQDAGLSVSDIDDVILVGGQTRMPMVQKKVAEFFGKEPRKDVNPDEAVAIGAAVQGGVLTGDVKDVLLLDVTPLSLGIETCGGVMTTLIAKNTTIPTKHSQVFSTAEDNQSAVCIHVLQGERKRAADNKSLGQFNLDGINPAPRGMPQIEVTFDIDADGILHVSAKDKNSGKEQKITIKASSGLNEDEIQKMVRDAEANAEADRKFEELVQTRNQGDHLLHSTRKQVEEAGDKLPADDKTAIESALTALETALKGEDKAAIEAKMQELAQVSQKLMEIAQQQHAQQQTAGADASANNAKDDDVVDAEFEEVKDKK
Kind of test: FP.

In a further test the target is human BiP, wild type (human, UniProt P11021 19-654). Nature of the test: FP.
Chain of human BiP, wild type (P11021 19-654): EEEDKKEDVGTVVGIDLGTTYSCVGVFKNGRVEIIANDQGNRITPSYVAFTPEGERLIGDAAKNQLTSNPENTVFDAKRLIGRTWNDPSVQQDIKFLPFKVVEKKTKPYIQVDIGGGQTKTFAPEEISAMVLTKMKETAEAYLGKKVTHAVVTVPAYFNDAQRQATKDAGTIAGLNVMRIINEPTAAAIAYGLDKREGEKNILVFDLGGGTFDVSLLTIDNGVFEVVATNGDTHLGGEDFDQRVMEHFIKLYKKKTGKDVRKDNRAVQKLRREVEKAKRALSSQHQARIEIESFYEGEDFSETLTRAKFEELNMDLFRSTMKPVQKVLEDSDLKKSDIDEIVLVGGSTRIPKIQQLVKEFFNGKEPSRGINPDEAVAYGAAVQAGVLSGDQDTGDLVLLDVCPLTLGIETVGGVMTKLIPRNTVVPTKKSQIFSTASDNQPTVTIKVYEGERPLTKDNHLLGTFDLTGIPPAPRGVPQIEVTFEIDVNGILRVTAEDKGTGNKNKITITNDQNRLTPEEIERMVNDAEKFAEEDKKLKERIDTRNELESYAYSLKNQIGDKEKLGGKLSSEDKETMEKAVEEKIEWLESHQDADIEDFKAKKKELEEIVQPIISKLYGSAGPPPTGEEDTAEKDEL
The target of test [1] is BiP FRET construct BiP-C41A/C420A/V429C/T462C (human, UniProt P11021 19-654, C41A | C420A | V429C | T462C). Nature of the test: FP.
Chain of BiP FRET construct BiP-C41A/C420A/V429C/T462C (P11021 19-654 C41A/C420A/V429C/T462C): as the sequence (P11021 19-654) above, with C23A, C402A, V411C, T444C counted along it
The target in test [2] is BiP EPR construct BiP-C41A/C420A/V429C (human, UniProt P11021 19-654, C41A | C420A | V429C). Kind of test: FP.
Chain of BiP EPR construct BiP-C41A/C420A/V429C (P11021 19-654 C41A/C420A/V429C): as the sequence (P11021 19-654) above, with C23A, C402A, V411C counted along it
Another test has as its target BiP-C41A/C420A (Homo sapiens). Nature of the test: FP.
Test [3] has as its target TMR-labeled DnaK (DnaK FRET construct C15A/M404C/T437C labelled with tetramethylrhodamine) (E. coli, UniProt P0A6Y8 1-638, C15A | M404C | T437C, tetramethylrhodamine (TMR, from 5-IATR) on both introduced cysteines (M404C, T437C)). Nature of the test: ATP.

No end group written: not given here.

Chain of BiP-C41A/C420A (Homo sapiens) (chain, as listed by the source C41A C420A): as the sequence (P11021 19-654) above, with C23A, C402A counted along it

fluorescein-NRLLLTG [NR peptide (NRLLLTG), fluorescein-labelled]: the Kd came out at 2.12 µM in the test with DnaK-C15A/M404C/T437C; 0.91 µM with human BiP, wild type; 0.61 µM in test [1]; 0.82 µM in test [2]; 0.85 µM with BiP-C41A/C420A.

B1: DnaJ (natural protein)
chain: MAKQDYYEILGVSKTAEEREIRKAYKRLAMKYHPDRNQGDKEAEAKFKEIKEAYEVLTDSQKRAAYDQYGHAAFEQGGMGGGGFGGGADFSDIFGDVFGDIFGGGRGRQRAARGADLRYNMELTLEEAVRGVTKEIRIPTLEECDVCHGSGAKPGTQPQTCPTCHGSGQVQMRQGFFAVQQTCPHCQGRGTLIKDPCNKCHGHGRVERSKTLSVKIPAGVDTGDRIRLAGEGEAGEHGAPAGDLYVQVQVKQHPIFEREGNNLYCEVPINFAMAALGGEIEVPTLDGRVKLKVPGETQTGKLFRMRGKGVKSVRGGAQGDLLCRVVVETPVGLNERQKQLLQELQESFGGPTGEHNSPRSKSFFDGVKKFFDDLTR
Molecule B1 had a Kd in test [3] of 0.182 µM.
